One block for each sequence: values may come before it.
How the values were obtained:
[1] = biological target: HLA-B*51:01; experiment: IEDB peptide-MHC binding, purified MHC/competitive/fluorescence; filed as Kd, often an IC50 or EC50 that approximates it; ≥ and ≤ were set here for values at or beyond the usual limits of such assays; conditions: source organism: Streptococcus pneumoniae TIGR4
[2] = biological target: HLA-B*57:01; experiment: as above; conditions: source organism: Streptococcus pneumoniae TIGR4
[3] = biological target: HLA-A*03:01; experiment: as above; conditions: source organism: Streptococcus pneumoniae TIGR4
[4] = biological target: HLA-B*39:01; experiment: as above
[5] = biological target: HLA-A*26:01; experiment: as above; conditions: source organism: Streptococcus pneumoniae TIGR4
[6] = biological target: HLA-B*27:03; experiment: as above; conditions: source organism: Streptococcus pneumoniae TIGR4
[7] = biological target: HLA-B*18:01; experiment: as above; conditions: source organism: Streptococcus pneumoniae TIGR4
[8] = biological target: HLA-A*23:01; experiment: as above; conditions: source organism: Streptococcus pneumoniae TIGR4
[9] = biological target: HLA-A*69:01; experiment: as above; conditions: source organism: Streptococcus pneumoniae TIGR4
[10] = biological target: HLA-A*24:03; experiment: as above; conditions: source organism: Streptococcus pneumoniae TIGR4
[11] = biological target: HLA-B*15:01; experiment: as above
[12] = biological target: HLA-B*15:17; experiment: as above; conditions: source organism: Streptococcus pneumoniae TIGR4
[13] = biological target: HLA-A*02:01; experiment: as above; conditions: source organism: Streptococcus pneumoniae TIGR4
[14] = biological target: HLA-A*29:02; experiment: as above; conditions: source organism: Streptococcus pneumoniae TIGR4
[15] = biological target: HLA-B*46:01; experiment: as above
[16] = biological target: HLA-B*58:01; experiment: IEDB peptide-MHC binding, purified MHC/direct/fluorescence; filed as Kd, often an IC50 or EC50 that approximates it; ≥ and ≤ were set here for values at or beyond the usual limits of such assays
[17] = biological target: HLA-A*03:01; experiment: as above
[18] = biological target: HLA-A*26:01; experiment: as above
[19] = biological target: HLA-B*07:02; experiment: as above
[20] = biological target: HLA-A*01:01; experiment: as above
[21] = biological target: HLA-B*40:01; experiment: as above
[22] = biological target: HLA-A*69:01; experiment: as above
[23] = biological target: HLA-B*15:01; experiment: as above
[24] = biological target: HLA-A*11:01; experiment: as above
[25] = biological target: HLA-B*35:01; experiment: as above
[26] = biological target: HLA-B*08:01; experiment: as above
[27] = biological target: HLA-B*27:05; experiment: as above
[28] = biological target: HLA-A*02:01; experiment: as above
[29] = biological target: HLA-A*31:01; experiment: as above
[30] = biological target: HLA-C*14:02; experiment: as above
[31] = biological target: HLA-B*35:01; experiment: IEDB peptide-MHC binding, purified MHC/competitive/fluorescence; filed as Kd, often an IC50 or EC50 that approximates it; ≥ and ≤ were set here for values at or beyond the usual limits of such assays; conditions: source organism: Francisella tularensis subsp. tularensis FSC198
[32] = biological target: HLA-A*02:03; experiment: as above; conditions: source organism: Human immunodeficiency virus 1
[33] = biological target: HLA-A*30:01; experiment: as above; conditions: source organism: Human immunodeficiency virus 1
[34] = biological target: HLA-A*02:06; experiment: as above; conditions: source organism: Human immunodeficiency virus 1
[35] = biological target: HLA-A*24:03; experiment: IEDB peptide-MHC binding, purified MHC/direct/fluorescence; filed as Kd, often an IC50 or EC50 that approximates it; ≥ and ≤ were set here for values at or beyond the usual limits of such assays
[36] = biological target: HLA-B*07:02; experiment: IEDB peptide-MHC binding, purified MHC/competitive/fluorescence; ≥ and ≤ were set here for values at or beyond the usual limits of such assays; conditions: source organism: Zaire ebolavirus
[37] = biological target: HLA-A*30:01; experiment: IEDB peptide-MHC binding, purified MHC/direct/fluorescence; filed as Kd, often an IC50 or EC50 that approximates it; ≥ and ≤ were set here for values at or beyond the usual limits of such assays; conditions: source organism: Yersinia enterocolitica
[38] = biological target: HLA-B*44:02; experiment: as above
[39] = biological target: HLA-A*01:01; experiment: IEDB peptide-MHC binding, purified MHC/competitive/fluorescence; filed as Kd, often an IC50 or EC50 that approximates it; ≥ and ≤ were set here for values at or beyond the usual limits of such assays
[40] = biological target: HLA-B*08:02; experiment: IEDB peptide-MHC binding, purified MHC/direct/fluorescence; filed as Kd, often an IC50 or EC50 that approximates it; ≥ and ≤ were set here for values at or beyond the usual limits of such assays; conditions: source organism: Influenza A virus(A/swine/Shandong/fZC/2003(H9N2))
[41] = biological target: HLA-A*24:02; experiment: as above; conditions: source organism: Influenza A virus (A/tiger/Thailand/CU-T4/04(H5N1))
[42] = source organism: Streptococcus pneumoniae TIGR4
[43] = source organism: Escherichia coli
[44] = source organism: Francisella tularensis subsp. holarctica LVS
[45] = source organism: Human immunodeficiency virus 1
[46] = source organism: Haemophilus influenzae
[47] = source organism: Yersinia enterocolitica
[48] = source organism: Vibrio cholerae
[49] = source organism: Vibrio parahaemolyticus
[50] = source organism: Influenza A virus (A/tiger/Thailand/CU-T4/04(H5N1))
[51] = source organism: Influenza A virus (A/Puerto Rico/8/34/Mount Sinai(H1N1))

Sequence: CLSDEINHV
Kd [1]: ≥ 20 µM | Kd [2]: ≥ 20 µM | Kd [3]: ≥ 20 µM | Kd [4, 42]: ≥ 20 µM | Kd [5]: ≥ 20 µM | Kd [6]: ≥ 20 µM | Kd [7]: ≥ 20 µM | Kd [8]: ≥ 20 µM | Kd [9]: ≥ 20 µM | Kd [10]: ≥ 20 µM | Kd [11, 42]: ≥ 20 µM | Kd [12]: ≥ 20 µM | Kd [13]: 0.0109 µM | Kd [14]: ≥ 20 µM | Kd [15, 42]: ≥ 20 µM

Kd [16, 43]: ≥ 20 µM | Kd [17, 43]: ≥ 20 µM | Kd [18, 43]: ≥ 20 µM | Kd [19, 43]: ≥ 20 µM | Kd [20, 43]: ≥ 20 µM | Kd [21, 43]: 2.92 µM | Kd [22, 43]: ≥ 20 µM | Kd [23, 43]: ≥ 20 µM | Kd [24, 43]: ≥ 20 µM | Kd [25, 43]: 4.76 µM | Kd [26, 43]: ≥ 20 µM | Kd [27, 43]: ≥ 20 µM | Kd [28, 43]: ≥ 20 µM | Kd [29, 43]: ≥ 20 µM
Sequence: SHDTIGPYY

Sequence: AIYKNTIAY
Kd ([30]; source organism: Francisella tularensis subsp. tularensis FSC198): 0.118 µM | Kd [17, 44]: 0.0069 µM | Kd [24, 44]: 0.0239 µM | Kd [31]: 0.0986 µM

Sequence: EKLKSLFNTV
Kd [4, 45]: ≥ 20 µM | Kd [32]: ≥ 20 µM | Kd [33]: 1.14 µM | Kd [34]: 0.343 µM | Kd [11, 45]: ≥ 20 µM

Kd [16, 46]: ≥ 20 µM | Kd [17, 46]: ≥ 20 µM | Kd [18, 46]: ≥ 20 µM | Kd [19, 46]: ≥ 20 µM | Kd [20, 46]: 0.247 µM | Kd [21, 46]: ≥ 20 µM | Kd [22, 46]: ≥ 20 µM | Kd [35, 46]: ≥ 20 µM | Kd [23, 46]: 0.374 µM | Kd [24, 46]: ≥ 20 µM | Kd [25, 46]: 0.0167 µM | Kd [26, 46]: ≥ 20 µM | Kd [27, 46]: ≥ 20 µM | Kd [28, 46]: ≥ 20 µM | Kd [29, 46]: ≥ 20 µM
Sequence: LAEQFSGEY

Sequence: SPQSLTTKP
IC50 [36]: ≥ 188 µM

Sequence: YIFRNTINM
Kd [16, 47]: 0.508 µM | Kd [30, 47]: 0.12 µM | Kd [17, 47]: ≥ 20 µM | Kd [18, 47]: 0.729 µM | Kd [19, 47]: 7.86 µM | Kd [37]: 1.79 µM | Kd [38, 47]: ≥ 20 µM | Kd [20, 47]: ≥ 20 µM | Kd [21, 47]: ≥ 20 µM | Kd [22, 47]: 0.2 µM | Kd [23, 47]: 0.298 µM | Kd [24, 47]: 7.78 µM | Kd [25, 47]: 0.0827 µM | Kd [26, 47]: ≥ 20 µM | Kd [27, 47]: ≥ 20 µM | Kd [28, 47]: 0.222 µM | Kd [29, 47]: ≥ 20 µM

Sequence: AYYWNQNGF
Kd [16, 48]: ≥ 20 µM | Kd ([30]; source organism: Vibrio cholerae 2740-80): ≤ 0.001 µM | Kd [17, 48]: ≥ 20 µM | Kd [18, 48]: ≥ 20 µM | Kd [19, 48]: ≥ 20 µM | Kd [38, 48]: ≥ 20 µM | Kd [20, 48]: ≥ 20 µM | Kd [21, 48]: ≥ 20 µM | Kd [22, 48]: ≥ 20 µM | Kd [35, 49]: 0.00223 µM | Kd [24, 49]: ≥ 20 µM | Kd [26, 48]: ≥ 20 µM | Kd [27, 48]: ≥ 20 µM | Kd [28, 48]: ≥ 20 µM

Sequence: KSVFNSLY
Kd ([39]; source organism: Influenza A virus (A/X-31(H3N2))): 1.47 µM

Sequence: LSTASSWSY
Kd ([39]; source organism: Influenza A virus (A/swine/Ohio/24366/2007(H1N1))): 0.261 µM

Sequence: FVRTLFQQM
Kd [16, 50]: ≥ 20 µM | Kd [17, 50]: ≥ 20 µM | Kd [19, 51]: 0.5 µM | Kd [40]: ≥ 20 µM | Kd [20, 50]: ≥ 20 µM | Kd [41]: ≥ 20 µM | Kd [21, 50]: ≥ 20 µM | Kd [22, 50]: ≥ 20 µM | Kd [23, 51]: 5.96 µM | Kd [24, 50]: ≥ 20 µM | Kd ([25]; source organism: Influenza A virus(A/swine/Shandong/fZC/2003(H9N2))): 0.297 µM | Kd [26, 51]: 0.188 µM | Kd [27, 50]: ≥ 20 µM | Kd [28, 50]: ≥ 20 µM | Kd ([15]; source organism: Influenza A virus H3N2): ≥ 20 µM

Reference: the Immune Epitope Database (IEDB)
